Source: patent US20230174628A1 (PEKING UNIVERSITY, published 2023)

Target: S protein (Spike) of the novel coronavirus SARS-CoV-2 (SARS-CoV-2, UniProt P0DTC2 14-1273)
Test: cell-based or functional assay

Binder | IC50, PRNT with SARS-CoV-2 euvirus on Vero E6 cells | IC50, neutralization of SARS-CoV-2 pseudovirus (Huh-7 cells, luciferase)
antigen-binding unit ABU-174 (antibody, V domains shown) VH: QVQLQQWGAGLLKPSETLSLTCAVYGGSFSDYYWNWIRRPPGKGLEWIGEITHSGSTNYNPSLKSRVTISVDTSKNQFSLKLSSVTAADTAVYYCARGQGYGRVLLWFGEWGQGTLVTVSS VL: EIVLTQSPATLSLSPGERATLSCRASQSVSTYLAWYQQKPGQAPRLLIYDASNRATGIPARFSGSGSGTDFTLTISSLEPEDFAVYYCQQRSNWITFGQGTRLEIK | 0.5 µg/mL | 0.026 µg/mL
antigen-binding unit ABU-190 (antibody, V domains shown) VH: EVQLVESGGGLIQPGGSLRLSCAASGITVSSNYMSWVRQAPGKGLEWVSVIYSGGSTDYADSVKGRFTISRDKSKNTLYLQMNSLRAEDTAVYYCARDLGEAGGMDVWGQGTTVTVSS VL: AIQLTQSPSSLSASVGDRVTITCRASQGISSYLAWYQQKPGKAPKLLIYAASTLQSGVPSRFSGSGSGTDFTLTISSLQPEDFATYYCQQLNSYPPAFGGGTKVEIK | 0.8 µg/mL | 0.039 µg/mL
